In experiment [1] the target is T1, Helicoverpa armigera V-ATPase subunit c (Helicoverpa armigera).
T1 construct: also called V-ATPases Subunit C; ATPase V subunit c
T1 chain: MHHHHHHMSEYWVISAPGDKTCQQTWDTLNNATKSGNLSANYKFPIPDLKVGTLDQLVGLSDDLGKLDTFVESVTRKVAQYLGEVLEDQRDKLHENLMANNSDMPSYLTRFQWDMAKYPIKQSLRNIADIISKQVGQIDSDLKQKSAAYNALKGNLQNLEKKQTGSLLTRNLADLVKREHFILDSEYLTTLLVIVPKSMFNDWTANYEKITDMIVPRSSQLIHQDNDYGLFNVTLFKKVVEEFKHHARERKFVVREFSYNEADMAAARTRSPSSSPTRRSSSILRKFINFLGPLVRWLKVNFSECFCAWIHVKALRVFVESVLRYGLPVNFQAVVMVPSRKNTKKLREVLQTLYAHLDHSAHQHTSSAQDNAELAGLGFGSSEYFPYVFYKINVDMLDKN
Description: ELISA, plate coated with the target antigen. In general terms: An ELISA detects its analyte on a solid surface through an enzyme-linked reagent.

In experiment [2] the target is T2, Helicoverpa armigera chitin deacetylase (Helicoverpa armigera).
T2 construct: the tag is not part of the printed entry; also called CDA; target CDA antigen
T2 chain: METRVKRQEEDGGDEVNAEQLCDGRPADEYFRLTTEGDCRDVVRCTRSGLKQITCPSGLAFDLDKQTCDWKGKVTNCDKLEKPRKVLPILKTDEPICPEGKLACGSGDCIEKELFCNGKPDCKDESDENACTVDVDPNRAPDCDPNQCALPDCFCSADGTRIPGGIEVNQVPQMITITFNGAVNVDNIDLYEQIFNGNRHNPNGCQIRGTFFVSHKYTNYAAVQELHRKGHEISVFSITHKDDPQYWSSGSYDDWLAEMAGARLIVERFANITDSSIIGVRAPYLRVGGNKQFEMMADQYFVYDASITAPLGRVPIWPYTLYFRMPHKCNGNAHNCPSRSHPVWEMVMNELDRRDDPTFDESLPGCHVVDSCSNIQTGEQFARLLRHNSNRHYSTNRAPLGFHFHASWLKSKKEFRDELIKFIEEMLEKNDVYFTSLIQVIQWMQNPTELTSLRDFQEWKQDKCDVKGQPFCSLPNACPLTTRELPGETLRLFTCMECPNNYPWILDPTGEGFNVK
Kind of experiment: ELISA, plate coated with 10 ug/ml target protein, 2 ug/ml nanobody, anti-VHH-HRP, A450.

For experiment [3], the target named is T3, Helicoverpa armigera cytochrome p450 monooxygenase (Helicoverpa armigera, UniProt Q95031 23-504).
T3 construct: the tag is not part of the printed entry; also called target P450 antigen
T3 chain: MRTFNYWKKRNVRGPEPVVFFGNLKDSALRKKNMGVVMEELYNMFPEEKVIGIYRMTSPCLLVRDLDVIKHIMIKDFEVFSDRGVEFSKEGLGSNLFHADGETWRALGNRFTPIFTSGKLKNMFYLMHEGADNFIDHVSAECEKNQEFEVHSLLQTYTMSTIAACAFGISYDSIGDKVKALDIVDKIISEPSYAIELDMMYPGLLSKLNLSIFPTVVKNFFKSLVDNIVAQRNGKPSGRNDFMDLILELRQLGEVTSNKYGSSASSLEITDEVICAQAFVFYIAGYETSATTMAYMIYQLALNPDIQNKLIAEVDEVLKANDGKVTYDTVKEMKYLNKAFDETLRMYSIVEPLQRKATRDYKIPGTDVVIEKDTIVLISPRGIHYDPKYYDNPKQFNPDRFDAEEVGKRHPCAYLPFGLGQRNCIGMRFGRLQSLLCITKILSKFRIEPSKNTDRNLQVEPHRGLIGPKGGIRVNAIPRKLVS
The description is as above.

B1: VAT0101A (VHH)
VHH: QVQLQESGGGLVQAGGSLRLSCAASGSTFSGYIMSWFRQPPGKERELVAAITYVGSTYVEDSVKGRFTISRDNAKNTVSLQMNSLKPEDTAVYYCRAREGEQLDFWGQGTQVTVSS
notes: Llama nanobody, His-tagged, expressed in E. coli SHuffle T7; also called anti-VAT nanobody VAT0101A
Consider B1, for which the binding result in experiment [1] is given as “binds”.

B2: CDA05 (VHH)
VHH: QVQLQESGGGLVQPGGSLRLSCTASGRTVSNYGMAWFRQVAGKERAFVAAINNRGDSKYYAESVKGRFTIARDNAKNTVYLQMNVLKPEDTAVYYCAADRRSLVRYEYNYWGQGTQVTVSS
notes: Llama nanobody, His-tagged, expressed in E. coli SHuffle T7; also called CDA5; anti-CDA nanobody CDA05
Consider B2, for which the binding result in experiment [2] is “binds”.

B3: P45004 (VHH)
VHH: QVQLQESGGGLVQAGGSLRLSCAASGRTFSRINMGWFRQAPGKEREFVAVISWNSIADYADSVKARFTISRDNAKNTVYLQMNSLKPEDTAVYYCAASAPFRSKNPTLYLYWGRGTQVTVSS
notes: Llama nanobody, His-tagged, expressed in E. coli SHuffle T7; also called anti-P450 nanobody P45004
As for B3, in experiment [3], the binding result is “binds”.

B4: P45003A (VHH)
VHH: QVQLQESGGGLVQAGDSLRLSCVASKRSFSSHAMGWFRQAPGKAREFVATISWNSGSTFYSDSSRGRFTISRDNGKNTLYLQMNSLKPEDTAVYYCAAASGRGITASDFRYDAWGQGTQVTVSS
notes: Llama nanobody, His-tagged, expressed in E. coli SHuffle T7; also called anti-P450 nanobody P45003A
With B4, the binding result in experiment [3] was “binds”.

B5: CDA10 (VHH)
VHH: QVQLQESGGGLVQTGESLRLSCAASGRTLSSYTMGWFRQAPGKEREIVAASSWSGGRTYYADSVKGRFTMSRNNAENTVYLQMNSLNPEDTAVYYCAADSSRAPRTYNYWGQGTQVTVSS
notes: Llama nanobody, His-tagged, expressed in E. coli SHuffle T7; also called anti-CDA nanobody CDA10
For B5, in experiment [2], the binding result was “binds”.

B6: CDA01A (VHH)
VHH: QVQLQESGGGLVQAGGSLRLSCAASGRTFNTYAMGWFRQAPGKEREFVAAMNRDGSTVLYADSVKGRFAISKDNAKNTGYLQMNSLKPEDTAIYYCAANARYSDYTDGQSFVSWGQGTQVTVSS
notes: Llama nanobody, His-tagged, expressed in E. coli SHuffle T7; also called CDA1a; anti-CDA nanobody CDA01A
Turning to B6, the binding result in experiment [2] was “binds”.

B7: CDA07A (VHH)
VHH: QVQLQESGGGLVQAGGSLRLSCVASGRTFGNYGLAWFRQPPGKEREFVAAINNRGGNTYYADSVKGRFTISRDNAANTLYLQMSSLKPEDTAVYYCAADRTSLHSYRYTYWGQGTQVTVSS
notes: Llama nanobody, His-tagged, expressed in E. coli SHuffle T7; also called CDA7a; CDA7A
For B7, in experiment [2], the binding result was “binds”.

B8: P45001A (VHH)
VHH: QVQLQESGGGLVQTGGSLRLSCAASGRTSRSYAMGWFRQAPGKERELVADIAWSDGRIYYSDSVKGRFTISRDNAKNTVYLEIDSLKPGDTAVYYCASRARGTVLYNYWGQGTQVTVSS
notes: Llama nanobody, His-tagged, expressed in E. coli SHuffle T7; also called anti-P450 nanobody P45001A
Turning to B8, the binding result in experiment [3] is “binds”.
